From IntAct's records for PubMed 16717130

B1: Serine/threonine-protein kinase PAK 1 (Homo sapiens), Q13153 (parent)
chain: MSNNGLDIQDKPPAPPMRNTSTMIGAGSKDAGTLNHGSKPLPPNPEEKKKKDRFYRSILPGDKTNKKKEKERPEISLPSDFEHTIHVGFDAVTGEFTGMPEQWARLLQTSNITKSEQKKNPQAVLDVLEFYNSKKTSNSQKYMSFTDKSAEDYNSSNALNVKAVSETPAVPPVSEDEDDDDDDATPPPVIAPRPEHTKSVYTRSVIEPLPVTPTRDVATSPISPTENNTTPPDALTRNTEKQKKKPKMSDEEILEKLRSIVSVGDPKKKYTRFEKIGQGASGTVYTAMDVATGQEVAIKQMNLQQQPKKELIINEILVMRENKNPNIVNYLDSYLVGDELWVVMEYLAGGSLTDVVTETCMDEGQIAAVCRECLQALEFLHSNQVIHRDIKSDNILLGMDGSVKLTDFGFCAQITPEQSKRSTMVGTPYWMAPEVVTRKAYGPKVDIWSLGIMAIEMIEGEPPYLNENPLRALYLIATNGTPELQNPEKLSAIFRDFLNRCLEMDVEKRGSAKELLQHQFLKIAKPLSSLTPLIAAAKEATKNNH

Variants of: B1
Conditions: with paxi_chick PXN

Row | effect of a mutation on the interaction | Variant
1 | decreasing interaction | K299A
2 | increasing interaction | L107F
